Publication PMC7773282
Read-outs that look alike come from different tables or passages of the source.

How the values were obtained:
[1] = biological target: human proton-activated chloride channel (PAC), reconstituted in MSP3D1 lipid nanodiscs (human) (UniProt Q9H813); assay: cryo-EM structure
[2] = biological target: human proton-activated chloride channel (PAC), reconstituted in MSP3D1 lipid nanodiscs (human) (UniProt Q9H813); assay: cryo-EM structure; remark: listed apart in the source

stoichiometry N [1]: 3
stoichiometry N [2]: 3
Substance: human proton-activated chloride channel (PAC), reconstituted in MSP3D1 lipid nanodiscs (from UniProt Q9H813 1-350) (natural protein)
